Laboratory results published in US7063950.

Legend:
[1] = target: human neuronal calcium channel α1B-1 subunit (human)
[2] = target: human neuronal calcium channel α1B-2α2bβ1-3 (human); assay: saturation binding of 125I-ω-CgTx GVIA to transiently transfected HEK293 cells
[3] = target: human neuronal calcium channel α1B-2α2bβ1-3 (human)

B1: 125I-ω-CgTx GVIA, P01522 46-72 (peptide)
peptide: CKSPGSSCSPTSYNCCRSCNPYTKRCY
modifications: not checked
Bmax (sites/cell) [1]: 757 sites/cell | Kd [1]: 0.0317 nM | Bmax (sites/cell) [2]: 37700 sites/cell | Kd [2]: 0.0443 nM | fold binding capacity against α1B-2α2bβ1-2 [3]: 2 fold | fold surface receptor density against α1B-2β1-3 [3]: 13 fold
